Test results published in patent US20230024461A1, “METHODS FOR DUAL DNA/PROTEIN TAGGING OF OPEN CHROMATIN” (Beth Israel Deaconess Medical Center, Inc., priority 2019, published 2023).

Tests used:
Format in all cases: biochemical, human
GM12878 nuclei = test: Peroxidase-mediated biotin labeling after transposition, western blot
Description: Western blot. Whole cell lysate was generated by resuspending cells washed with 1×PBS in RIPA (Boston BioProducts) supplemented with 1× complete EDTA-free protease inhibitor cocktail (Roche). Cells were subject to sonication via a Sonic Dismembrator 100 (Fisher Scientific) at setting 2, with 3 pulses of 15 seconds on/off on ice. Lysates were clarified by centrifugation (15,000×g, 30 minutes, 4° C.) and their concentrations quantified with detergent-compatible Bradford assay (Thermo Fisher Scientific). All Western blots were run on NuPAGE 4-12% Bis-Tris protein gels (Thermo Fisher Scientific) and transferred to […] nitrocellulose membranes (GE Healthcare). Membranes were stained with Ponceau S, blocked with 3% milk in PBS-T, and incubated overnight with primary antibody and subsequently with secondary antibody after brief washing with PBS-T. Chemiluminescence was determined by applying ECL Western Blotting detection reagent (GE Healthcare) to membranes and imaging on an Amersham Imager 600 (GE Healthcare). Membranes were stripped with Restore PLUS Stripping Buffer (Thermo Fisher Scientific); streptavidin-HRP was inactivated with 15% hydrogen peroxide. […]

HEK293T nuclei = test: iDAPT protein labeling, western blot of labeled nuclear lysates; settings: extracted HEK293T nuclei
Description: (§1) DNA and protein tagging by iDAPT. All iDAPT proteomic labeling assays were performed as described below unless indicated otherwise. 2.5 μmol MEDS-A/B, 2 μmol enzyme, and 1 μmol hemin chloride per channel were incubated at room temperature for 1 hour. 1e7 cells per sample were washed (500×g, 5 minutes, 4° C.), lysed and triturated in 100 μL LB1 (10 mM Tris-HCl pH 7.5, 10 mM NaCl, 3 mM MgCl2, 1% BSA, 0.01% digitonin, 0.1% Tween-20, 0.1% NP-40, and 1× cOmplete EDTA-free protease inhibitor cocktail [Roche]) for 3 minutes, and subsequently supplemented with an additional 1 mL of LB2 (10 mM Tris-HCl pH 7.5, 10 mM NaCl, 3 mM MgCl2, 1% BSA, 0.1% Tween-20, and 1× protease inhibitor). Nuclei were pelleted (500×g, 10 minutes, 4° C.), resuspended with tagmentation reaction mixture (20% dimethylformamide, 10 mM MgCl2, 20 mM Tris-HCl pH 7.5, 33% 1×PBS, 1% BSA, 0.01% digitonin, 0.1% Tween-20, 500 μM biotin-phenol, 1× protease inhibitor, and 2 pmol enzyme equivalent of enzyme:DNA:heme complex in a total volume of 500 μL), and incubated at 37° C. for 30 minutes with agitation on a thermomixer (1,000 rpm). 5 μL of tagmentation mix was saved for quality assessment as described above for ATAC-seq/iDAPT-seq sample preparation. The remaining nuclear suspension was then washed 2× with 1×PBS supplemented with 500 μM biotin-phenol, 1% BSA, 0.1% Tween-20, and 1× protease inhibitor (3000×g, 5 minutes, 4° C.) and labeled with 1 mM hydrogen peroxide and 500 μM biotin-phenol for 1 minute in 1×PBS with 1× protease inhibitor in a volume of 500 μL. Peroxidation reactions were quenched with 500 μL 2× quenching buffer (10 mM Trolox, 20 mM sodium ascorbate, 20 mM NaN3, and 1× protease inhibitor in 1×PBS). Labeled nuclei were then pelleted, washed with 1× quenching buffer, resuspended in 500 μL RIPA containing protease inhibitors, and frozen at −80° C. Lysates were thawed on ice, sonicated via a Sonic Dismembrator 100 (Fisher Scientific, setting 3, 15 seconds, 4 pulses), and incubated on ice for 30 minutes after the addition of 1 μL benzonase (EMD Millipore). Lysates were clarified by centrifugation (15,000×g, 20 minutes, 4° C.), quantified via the detergent-compatible Bradford assay (Thermo Fisher Scientific), and subjected to either Western blotting or quantitative mass spectrometry analyses as described below. For NB4 cell analysis, an additional endogenous peroxidase blocking step was added after nuclear extraction and before tagmentation: nuclei were resuspended in 500 μL 1×PBS containing 1% BSA, 0.03% hydrogen peroxide, and 0.1% NaN3 and incubated on ice for 30 minutes. Nuclei were pelleted and washed 4× with 1×PBS/1% BSA (3000×g, 5 minutes, 4° C.). Residual hydrogen peroxide was monitored by colorimetric assessment of supernatant via Quantofix peroxides test stick (Sigma).
(§2) Western blotting analysis. Whole cell or nuclear lysates were generated by resuspending cells or nuclei in RIPA (Boston BioProducts) supplemented with 1× cOmplete EDTA-free protease inhibitor cocktail (Roche). […] Lysates were clarified by centrifugation (15,000×g, 20 minutes, 4° C.) and their concentrations quantified via the detergent-compatible Bradford assay (Thermo Fisher Scientific). […] Membranes were blocked with 3% milk in PBS-T and incubated overnight with primary antibody and subsequently with secondary antibody after brief washing with PBS-T. Chemiluminescence was determined by applying ECL Western Blotting detection reagent (GE Healthcare) to membranes and imaging on an Amersham Imager 600 (GE Healthcare). […]

K562 nuclei = test: as above
Description: as §1, §2

B1: TP3: Tn5 transposase-AEAAAKEAAAKA linker-APEX2 peroxidase fusion, C-terminal FLAG; amino acid SEQ ID NO: 27 (protein)
chain: MITSALHRAADWAKSVFSSAALGDPRRTARLVNVAAQLAKYSGKSITISSEGSKAMQEGAYRFIRNPNVSAEAIRKAGAMQTVKLAQEFPELLAIEDTTSLSYRHQVAEELGKLGSIQDKSRGWWVHSVLLLEATTFRTVGLLHQEWWMRPDDPADADEKESGKWLAAAATSRLRMGSMMSNVIAVCDREADIHAYLQDKLAHNERFVVRSKHPRKDVESGLYLYDHLKNQPELGGYQISIPQKGVVDKRGKRKNRPARKASLSLRSGRITLKQGNITLNAVLAEEINPPKGETPLKWLLLTSEPVESLAQALRVIDIYTHRWRIEEFHKAWKTGAGAERQRMEEPDNLERMVSILSFVAVRLLQLRESFTPPQALRAQGLLKEAEHVESQSAETVLTPDECQLLGYLDKGKRKRKEKAGSLQWAYMAIARLGGFMDSKRTGIASWGALWEGWEALQSKLDGFLAAKDLMAQGIKIAEAAAKEAAAKAGKSYPTVSADYQDAVEKAKKKLRGFIAEKRCAPLMLRLAFHSAGTFDKGTKTGGPFGTIKHPAELAHSANNGLDIAVRLLEPLKAEFPILSYADFYQLAGVVAVEVTGGPKVPFHPGREDKPEPPPEGRLPDPTKGSDHLRDVFGKAMGLTDQDIVALSGGHTIGAAHKERSGFEGPWTSNPLIFDNSYFTELLSGEKEGLLQLPSDKALLSDPVFRPLVDKYAADEDAFFADYAEAHQKLSELGFADADYKDDDDK
modifications: C-terminal FLAG
GM12878 nuclei
  biotinylation signal (streptavidin): highest signals
HEK293T nuclei
  peroxidase-dependent biotin signal: strong peroxidase-dependent biotin signal
K562 nuclei
  biotin labeling: highest levels of labeling
